Where a chain is given by its changes, count along the chain named.
B1: 1503_H05 (PG16) (TCN-119) (antibody, V domains shown)
VH: QEKLVESGGGVVQPGGSLRLSCLASGFTFHKYGMHWVRQAPGKGLEWVALISDDGMRKYHSDSMWGRVTISRDNSKNTLYLQFSSLKVEDTAMFFCAREAGGPIWHDDVKYYDFNDGYYNYHYMDVWGKGTIVTVSS
VL: QSALTQPASVSGSPGQTITISCNGTRSDVGGFDSVSWYQQSPGKAPKVMVFDVSHRPSGISNRFSGSKSGNTASLTISGLHIEDEGDYFCSSLTDRSHRIFGGGTKVTVLG
B2: 1456_A12 (PG16) (TCN-117) (antibody, V domains shown)
VH: B1 VH with Q1H, K3Q, S7A, K87R, I132K
VL: B1 VL with R26S, S27R, I60M, V107L
B3: 1469_M23 (PG16) (TCN-118) (antibody, V domains shown)
VH: B1 VH with I132T
VL: B1 VL with K44R, V107L
B4: 1489_I13 (PG16) (TCN-120) (antibody, V domains shown)
VH: B1 VH with K3Q, V5L, D62N, I132T
VL: B1 VL with R26S

molecular target: 92RW020 Env on pseudovirus (HIV-1 92RW020); experiment: cell-based or functional assay

For B1, which IC50 (ug/ml), pseudovirus neutralization, TZM-bl assay is on record?
The IC50 (ug/ml), pseudovirus neutralization, TZM-bl assay was 0.02 µg/mL.

B2 was tested. Which IC50 (ug/ml), pseudovirus neutralization, TZM-bl assay did it give?
The IC50 (ug/ml), pseudovirus neutralization, TZM-bl assay was 0.05 µg/mL.

With B3 as the binder, how does the IC50 (ug/ml), pseudovirus neutralization, TZM-bl assay read?
Its IC50 (ug/ml), pseudovirus neutralization, TZM-bl assay is 0.05 µg/mL.

B4 was tested. Which IC50 (ug/ml), pseudovirus neutralization, TZM-bl assay did it give?
The IC50 (ug/ml), pseudovirus neutralization, TZM-bl assay was 0.03 µg/mL.

molecular target: ADA Env on pseudovirus (HIV-1 ADA); experiment: cell-based or functional assay

Which IC50 (ug/ml), pseudovirus neutralization, TZM-bl assay does the source give for B1 here?
Its IC50 (ug/ml), pseudovirus neutralization, TZM-bl assay is 0.003 µg/mL.

B2 was tested. Which IC50 (ug/ml), pseudovirus neutralization, TZM-bl assay did it give?
Its IC50 (ug/ml), pseudovirus neutralization, TZM-bl assay is 0.005 µg/mL.

Which IC50 (ug/ml), pseudovirus neutralization, TZM-bl assay does the source give for B3 here?
The IC50 (ug/ml), pseudovirus neutralization, TZM-bl assay was 0.005 µg/mL.

B4 was tested. Which IC50 (ug/ml), pseudovirus neutralization, TZM-bl assay did it give?
The IC50 (ug/ml), pseudovirus neutralization, TZM-bl assay was 0.008 µg/mL.

molecular target: HIV-1 JR-CSF Env on pseudovirus (HIV-1 JR-CSF) (UniProt P20871); experiment: cell-based or functional assay

B1 was tested. Which IC50 (ug/ml), pseudovirus neutralization, TZM-bl assay did it give?
The IC50 (ug/ml), pseudovirus neutralization, TZM-bl assay was 0.001 µg/mL.

With B2 as the binder, how does the IC50 (ug/ml), pseudovirus neutralization, TZM-bl assay read?
The IC50 (ug/ml), pseudovirus neutralization, TZM-bl assay was 0.001 µg/mL.

With B3 as the binder, how does the IC50 (ug/ml), pseudovirus neutralization, TZM-bl assay read?
The IC50 (ug/ml), pseudovirus neutralization, TZM-bl assay was 0.002 µg/mL.

For B4, which IC50 (ug/ml), pseudovirus neutralization, TZM-bl assay is on record?
The IC50 (ug/ml), pseudovirus neutralization, TZM-bl assay was 0.002 µg/mL.

molecular target: JR-CSF(1309A) Env on pseudovirus (HIV-1 JR-CSF) (UniProt P20871); experiment: cell-based or functional assay

For B1, which IC50 (ug/ml), pseudovirus neutralization, TZM-bl assay is on record?
Its IC50 (ug/ml), pseudovirus neutralization, TZM-bl assay is > 1 µg/mL.

With B2 as the binder, how does the IC50 (ug/ml), pseudovirus neutralization, TZM-bl assay read?
Its IC50 (ug/ml), pseudovirus neutralization, TZM-bl assay is > 1 µg/mL.

For B3, which IC50 (ug/ml), pseudovirus neutralization, TZM-bl assay is on record?
The IC50 (ug/ml), pseudovirus neutralization, TZM-bl assay was > 1 µg/mL.

How did the IC50 (ug/ml), pseudovirus neutralization, TZM-bl assay turn out when B4 was run?
Its IC50 (ug/ml), pseudovirus neutralization, TZM-bl assay is > 1 µg/mL.

molecular target: JR-CSF(Y318A) Env on pseudovirus (HIV-1 JR-CSF) (UniProt P20871); experiment: cell-based or functional assay

How did the IC50 (ug/ml), pseudovirus neutralization, TZM-bl assay turn out when B1 was run?
Its IC50 (ug/ml), pseudovirus neutralization, TZM-bl assay is > 1 µg/mL.

Which IC50 (ug/ml), pseudovirus neutralization, TZM-bl assay does the source give for B2 here?
The IC50 (ug/ml), pseudovirus neutralization, TZM-bl assay was > 1 µg/mL.

How did the IC50 (ug/ml), pseudovirus neutralization, TZM-bl assay turn out when B3 was run?
Its IC50 (ug/ml), pseudovirus neutralization, TZM-bl assay is > 1 µg/mL.

How did the IC50 (ug/ml), pseudovirus neutralization, TZM-bl assay turn out when B4 was run?
Its IC50 (ug/ml), pseudovirus neutralization, TZM-bl assay is > 1 µg/mL.

molecular target: JR-FL(E168K) Env on pseudovirus (HIV-1 JR-FL); experiment: cell-based or functional assay

How did the IC50 (ug/ml), pseudovirus neutralization, TZM-bl assay turn out when B1 was run?
The IC50 (ug/ml), pseudovirus neutralization, TZM-bl assay was 0.002 µg/mL.

With B2 as the binder, how does the IC50 (ug/ml), pseudovirus neutralization, TZM-bl assay read?
The IC50 (ug/ml), pseudovirus neutralization, TZM-bl assay was 0.003 µg/mL.

B3 was tested. Which IC50 (ug/ml), pseudovirus neutralization, TZM-bl assay did it give?
Its IC50 (ug/ml), pseudovirus neutralization, TZM-bl assay is 0.005 µg/mL.

For B4, which IC50 (ug/ml), pseudovirus neutralization, TZM-bl assay is on record?
The IC50 (ug/ml), pseudovirus neutralization, TZM-bl assay was 0.005 µg/mL.
